Experiments:
[1] = target: TSH (thyroid stimulating hormone) in HISCL (trademark) TSH Calibrators C0 to C5 (Sysmex Corporation) (UniProt P01215); assay: chemiluminescent sandwich ELISA on D-streptavidin-immobilized plate; TSH 200 µIU/mL
[2] = target: TSH (thyroid stimulating hormone) in HISCL (trademark) TSH Calibrators C0 to C5 (Sysmex Corporation) (UniProt P01215); assay: chemiluminescent sandwich ELISA on D-streptavidin-immobilized plate; TSH 50 µIU/mL
[3] = target: TSH (thyroid stimulating hormone) in HISCL (trademark) TSH Calibrators C0 to C5 (Sysmex Corporation) (UniProt P01215); assay: chemiluminescent sandwich ELISA on D-streptavidin-immobilized plate; TSH 0 µIU/mL (blank)
[4] = target: TSH (thyroid stimulating hormone) in HISCL (trademark) TSH Calibrators C0 to C5 (Sysmex Corporation) (UniProt P01215); assay: chemiluminescent sandwich ELISA on D-tamavidin 2-immobilized plate; TSH 10 µIU/mL
[5] = target: TSH (thyroid stimulating hormone) in HISCL (trademark) TSH Calibrators C0 to C5 (Sysmex Corporation) (UniProt P01215); assay: chemiluminescent sandwich ELISA on D-streptavidin-immobilized plate; TSH 10 µIU/mL
[6] = target: TSH (thyroid stimulating hormone) in HISCL (trademark) TSH Calibrators C0 to C5 (Sysmex Corporation) (UniProt P01215); assay: chemiluminescent sandwich ELISA on D-streptavidin-immobilized plate; TSH 50 µIU/mL, five samples
[7] = target: TSH (thyroid stimulating hormone) in HISCL (trademark) TSH Calibrators C0 to C5 (Sysmex Corporation) (UniProt P01215); assay: chemiluminescent sandwich ELISA on D-streptavidin-immobilized plate; TSH 120 µIU/mL
[8] = target: TSH (thyroid stimulating hormone) in HISCL (trademark) TSH Calibrators C0 to C5 (Sysmex Corporation) (UniProt P01215); assay: chemiluminescent sandwich ELISA on D-tamavidin 2-immobilized plate; TSH 50 µIU/mL
[9] = target: TSH (thyroid stimulating hormone) in HISCL (trademark) TSH Calibrators C0 to C5 (Sysmex Corporation) (UniProt P01215); assay: chemiluminescent sandwich ELISA on D-tamavidin 2-immobilized plate; TSH 0 µIU/mL (blank)
[10] = target: TSH (thyroid stimulating hormone) in HISCL (trademark) TSH Calibrators C0 to C5 (Sysmex Corporation) (UniProt P01215); assay: chemiluminescent sandwich ELISA on D-streptavidin-immobilized plate; TSH 2 µIU/mL
[11] = target: TSH (thyroid stimulating hormone) in HISCL (trademark) TSH Calibrators C0 to C5 (Sysmex Corporation) (UniProt P01215); assay: chemiluminescent sandwich ELISA on D-tamavidin 2-immobilized plate; TSH 50 µIU/mL, five samples
[12] = target: TSH (thyroid stimulating hormone) in HISCL (trademark) TSH Calibrators C0 to C5 (Sysmex Corporation) (UniProt P01215); assay: chemiluminescent sandwich ELISA on D-tamavidin 2-immobilized plate; TSH 2 µIU/mL
[13] = target: TSH (thyroid stimulating hormone) in HISCL (trademark) TSH Calibrators C0 to C5 (Sysmex Corporation) (UniProt P01215); assay: chemiluminescent sandwich ELISA on D-tamavidin 2-immobilized plate; TSH 120 µIU/mL
[14] = target: TSH (thyroid stimulating hormone) in HISCL (trademark) TSH Calibrators C0 to C5 (Sysmex Corporation) (UniProt P01215); assay: chemiluminescent sandwich ELISA on D-tamavidin 2-immobilized plate; TSH 200 µIU/mL

Sequence of TSH (thyroid stimulating hormone) in HISCL (trademark) TSH Calibrators C0 to C5 (Sysmex Corporation) (P01215 25-116, chain 1 of 2): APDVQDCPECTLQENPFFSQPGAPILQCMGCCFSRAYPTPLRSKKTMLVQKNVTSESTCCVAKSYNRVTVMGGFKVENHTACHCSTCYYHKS
Sequence of TSH (thyroid stimulating hormone) in HISCL (trademark) TSH Calibrators C0 to C5 (Sysmex Corporation) (P01222 21-132, chain 2 of 2, further chain): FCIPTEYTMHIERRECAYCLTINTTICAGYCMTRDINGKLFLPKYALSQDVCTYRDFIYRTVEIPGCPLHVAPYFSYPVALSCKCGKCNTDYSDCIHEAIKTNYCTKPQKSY

Substance: L-biotin-labeled TSH antibody (thyroid stimulating hormone antibody T2-194, KITAYAMA LABES CO., LTD., labeled with L-biotin-AC5-OSu)
- Count value [1]: 1.26e+06 count
- Count value [2]: 442000 count
- Count value [3]: 1010 count
- Count value [4]: 150000 count
- Count value [5]: 80400 count
- Count value (average of five samples) [6]: 410000 count
- Count value [7]: 967000 count
- Count value [8]: 700000 count
- Count value [9]: 363 count
- Count value [10]: 17300 count
- Count value (average of five samples) [11]: 668000 count
- Count value [12]: 35300 count
- Count value [13]: 1.32e+06 count
- Count value [14]: 1.58e+06 count

Source: patent publication US20230288411A1, “POLYPEPTIDE, MULTIMER, SOLID PHASE, MEASUREMENT METHOD FOR TEST SUBSTANCE, AND REAGENT KIT” (SYSMEX CORPORATION, priority 2020, published 2023)
